Assays:
[1] = system: wnt7aa morphants; assay: Trunk DRG rescue in wnt7aa morphant zebrafish larvae; type: in vivo, Danio rerio; conditions: 100 pg mRNA injection, 72 hpf
Protocol: Zebrafish (Danio rerio) were raised and handled under standard conditions following the rules of the State of Belgium (protocol approval number: CEBEA-IBMM-2017-22:65). The following line was used: Tg(−17.0neurog1:EGFP)^w61 (McGraw et al., J. Neurosci 28(47):12558-69 (2008)).
(§1) The following splice-blocking morpholino (MOs) (GeneTools, Eugene, OR) were injected into embryos at the one-cell stage: wnt7aa ([…], 6 ng) (SEQ ID NO.: 123). Synthetic mRNAs were transcribed from pCS2 plasmids after NotI digestion using the mMessage mMachine SP6 Kit (Ambion, Carlsbad, CA) and injected into one-cell stage zebrafish embryo. For Xenopus laevis microinjection, 15 pg of wnt7a or wnt7a^K190A or wnt7a^1-278 mRNA were injected into one ventral blastomere of the four-cell stage embryo.
(§2) zebrafish embryos were imaged with an LSM710 confocal microscope and images were processed in ImageJ. Images of zebrafish development phenotypes were taken on Leica M165 FC. Xenopus larvae were imaged with an Olympus SZX16.

[2] = system: zebrafish zygote; type: in vivo, Danio rerio; conditions: injection in zygote, 3 dpf larvae
Protocol: as §1, §2

[3] = system: Wnt7aa^−/− mutant zebrafish; assay: Transgenic endothelial expression (kdrl promoter) in Wnt7aa−/− zebrafish: hindbrain CtAs and GLUT1 staining; type: in vivo, Danio rerio; conditions: 60 hpf embryos
From the text: (A) Dorsal views of the cerebral vasculatures of 60 hpf WT or Wnt7aa^−/− Tg(kdrl:EGFP) embryos. In Wnt7a^−/− mutants, the intracerebral CtAs are lacking. Wnt7, Wnt7a^K190A or Wnt7a^1-278 were transiently expressed in the endothelium of Wnt7aa^−/− embryos under the control of an endothelial-specific kdrl (Vascular endothelial growth factor receptor kdr-like) promoter. The Wnt7 ligands were expressed as a biscistronic construct with BFP (Blue Fluorescent Protein) used as transgenesis marker. In contrast to uninjected embryos, Wnt7, Wnt7a^K190A or Wnt7a^1-278 restore hindbrain CtAs formation in Wnt7aa^−/− mutants as quantified in (B). (C) Anti-GLUT1 staining of the CtAs after transgenic expression of Wnt7, Wnt7a^K190A and Wnt7a^1-278 in 60 hpf Wnt7aa^−/− embryos. Transgenic expression was achieved as in (A).
Mouse Wnt7, Wnt7a^K190A and Wnt7a^1-278 were transiently expressed in the endothelium of Wnt7aa^−/− embryos under the control of an endothelial-specific kdrl (Vascular endothelial growth factor receptor kdr-like) promoter. The Wnt7 ligands were expressed as a biscistronic construct with BFP (Blue Fluorescent Protein) as transgenesis marker.

[4] = system: all 10 Fz genes; assay: STF luciferase assay after co-transfection with all 10 Fz genes, no Gpr124/Reck; type: cell-based; conditions: in the absence of Gpr124/Reck
Protocol: Cells were plated into 96-well plates and transfected after 24 h in triplicate with Lipofectamine 2000 (Invitrogen, Carlsbad, Calif.). The amount of plasmid DNA transfected per well was optimized for each expression vector: Renilla luciferase (0.5 ng), Wnt (20 ng), Fz (5 ng), LRP (2.5 ng), Gpr124 (10 ng), Reck (10 ng) unless otherwise indicated. The total amount of DNA was adjusted to 100 ng per well with the empty pCS2 vector. Cells were harvested in passive lysis buffer (E1960, Promega, Wisconsin) and the activities of the Firefly and Renilla luciferases were measured sequentially using the Dual-Luciferase Reporter Assay system (E1960, Promega, Madison, Wis.) 48 h post-transfection.

B1: Wnt7a^K190A: single-residue variant of full-length mWnt7a (precursor numbering); Gpr124/Reck-selective agonist (protein)
chain: LGASIICNKIPGLAPRQRAICQSRPDAIIVIGEGSQMGLDECQFQFRNGRWNCSALGERTVFGKELKVGSREAAFTYAIIAAGVAHAITAACTQGNLSDCGCDKEKQGQYHRDEGWKWGGCSADIRYGIGFAKVFVDAREIKQNARTLMNLHNNEAGRAILEENMKLECKCHGVSGSCTTKTCWTTLPQFRELGYVLKDKYNEAVHVEPVRASRNKRPTFLKIKKPLSYRKPMDTDLVYIEKSPNYCEEDPVTGSVGTQGRACNKTAPQASGCDLMCCGRGYNTHQYARVWQCNCKFHWCCYVKCNTCSERTEMYTCK
modifications: human Wnt7a variant K159A
**Q.** Which results are given for B1?
**A.** DRG rescue [1]: significant DRG rescues; mRNA dose well tolerated without posteriorizing or gross anatomical alterations [2]: ≤ 100 pg; blood-brain barrier (GLUT1 expression) ([3]; anti-GLUT1 staining of CtAs): restored blood-brain barrier; brain angiogenesis / hindbrain CtAs formation ([3]; transient endothelial expression): triggered GPR124/RECK-dependent brain angiogenesis; signaling through any Fz [4]: failed to signal through any Fz

Source: patent US11840557B2, “Wnt7 variants capable of activating g-protein coupled receptor (Gpr)124/Reck/frizzled/lipoprotein receptor-related protein (LRP)-mediated Wnt signaling” (UNIVERSITÉ LIBRE DE BRUXELLES, priority 2018, dated 2023)
